In experiment [1] the target is mouse IL-21R on T cells of mouse splenocytes (mouse) (UniProt Q9JHX3). The experiment is described as follows: cell-based or functional assay.
Experiment [2] has as its target human IL-21R on T cells of primary human PBMCs (human) (UniProt Q9HBE5). The experiment is described as follows: cell-based or functional assay.
For experiment [3], the target named is recombinant human IL-21R His tag (Acro Biosystems) (human) (UniProt Q9HBE5). The experiment is described as follows: BLI. In general terms: Biolayer interferometry detects binding as a change in optical thickness at a sensor tip.
Experiment [4] addresses mouse IL-21R, His-tagged (BLI antigen) (mouse) (UniProt Q9JHX3). Nature of the experiment: BLI.

Substance “IL-21_human_S74H Fc fusion protein (from UniProt Q9HBE4 30-162)” displayed a Mouse T cell EC50 (pM), pSTAT3 phosflow in experiment [1] of 1900 pM. Moreover, the Human T cell EC50 (pM), pSTAT3 phosflow in experiment [2] worked out at 3.6 pM. The dissociation constant Kd (as a rule, the equilibrium constant for the complex coming apart) in experiment [3] was 12.3 nM.
As for “IL-21_human_P108L Fc fusion protein (from UniProt Q9HBE4 30-162)”, in experiment [1], the Mouse T cell EC50 (pM), pSTAT3 phosflow stood at 71000 pM. Further, the Kd in experiment [3] came out at 3.21 nM; in experiment [4] it was 11.8 nM.
Substance “IL-21_human_R34S Fc fusion protein (from UniProt Q9HBE4 30-162)” returned a Mouse T cell EC50 (pM), pSTAT3 phosflow in experiment [1] of 8500 pM. The substance further showed a Human T cell EC50 (pM), pSTAT3 phosflow in experiment [2] of 5.6 pM. Besides, the Kd in experiment [3] was 31.5 nM; in experiment [4] it was 28.7 nM.
As to “IL-21_human_E72S Fc fusion protein (from UniProt Q9HBE4 30-162)”, the Mouse T cell EC50 (pM), pSTAT3 phosflow in experiment [1] is 47000 pM. In addition, the Human T cell EC50 (pM), pSTAT3 phosflow in experiment [2] stood at 31 pM. Also, in experiment [4], the Kd was 7.75 nM.
As to “IL-21_human_Y52Q Fc fusion protein (from UniProt Q9HBE4 30-162)”, the Mouse T cell EC50 (pM), pSTAT3 phosflow in experiment [1] is 9200 pM. The substance further showed a Human T cell EC50 (pM), pSTAT3 phosflow in experiment [2] of 8.7 pM. The Kd was 14.4 nM in experiment [3] and 19.4 nM in experiment [4].

The record behind these values is patent publication US12281147.
